From patent US20230183753A1, “Methods of in Vitro Cell Delivery” (Intellia Therapeutics, Inc., priority 2020, published 2023)
Oligonucleotides are written 5' to 3', each unit as a sugar letter and its base; * is a phosphorothioate linkage, no mark a phosphodiester; rarer units and linkages stand in square brackets, end groups in braces. Plain capitals give the bases only. m = 2'-O-methyl; r = 2'-OH (RNA)

Columns and labels:
[1] = tested on: B2M, CD3, MHC II; assay: Flow cytometry of antigen negative T cells (B2M, CD3, MHC II) after BC22n or Cas9 editing, Example 16A; format: cell-based, human
From the text: Cells were subsequently washed, processed on a Cytoflex instrument (Beckman Coulter) and analyzed using the FlowJo software package. T cells were gated based on size, shape, viability, and antigen expression.

[2] = tested on: B2M, TRAC, TRBC1/2, CIITA; assay: NGS editing profile of T cells with BC22n or Cas9 mRNA, single or four guides, LNP titration, Example 16A; format: cell-based, human; conditions: LNP;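 further: activated T cells exposed to LNPs 72 h after activation, kept at 37 °C, harvested on day 10 post activation, editing measured by NGS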
Method: Cells were expanded in T cell basal media for 72 hours prior to LNP transfection.
LNPs were mixed to fixed total mRNA weight ratios of 6:3:2 for editor mRNA, guide RNA, and UGI mRNA respectively as described in Table 12. […] LNP mixtures were incubated for 5 minutes at 37° C. in T cell basal media substituting 6% cynomolgus monkey serum (Bioreclamation IVT, Cat. CYN220760) for fetal bovine serum.
T cells were incubated at 37° C. with 5% CO2 for the duration of the experiment.
In total, T cells were exposed to 6 different LNPs simultaneously (editor mRNA, UGI mRNA, 4 guides).

[3] = multiple guide delivery (four guides simultaneously), locus of the guide assayed, editor BC22n, total RNA 8.6 ng
[4] = multiple guide delivery (four guides simultaneously), locus of the guide assayed, editor BC22n, total RNA 17.2 ng
[5] = multiple guide delivery (four guides simultaneously), locus of the guide assayed, editor BC22n, total RNA 34.4 ng
[6] = multiple guide delivery (four guides simultaneously), locus of the guide assayed, editor BC22n, total RNA 68.8 ng
[7] = multiple guide delivery (four guides simultaneously), locus of the guide assayed, editor BC22n, total RNA 137.5 ng
[8] = multiple guide delivery (four guides simultaneously), locus of the guide assayed, editor BC22n, total RNA 275.0 ng
[9] = multiple guide delivery (four guides simultaneously), locus of the guide assayed, editor BC22n, total RNA 550.0 ng
[10] = multiple guide delivery (four guides simultaneously), locus of the guide assayed, editor Cas9, total RNA 8.6 ng
[11] = multiple guide delivery (four guides simultaneously), locus of the guide assayed, editor Cas9, total RNA 17.2 ng
[12] = multiple guide delivery (four guides simultaneously), locus of the guide assayed, editor Cas9, total RNA 34.4 ng
[13] = multiple guide delivery (four guides simultaneously), locus of the guide assayed, editor Cas9, total RNA 68.8 ng
[14] = multiple guide delivery (four guides simultaneously), locus of the guide assayed, editor Cas9, total RNA 137.5 ng
[15] = multiple guide delivery (four guides simultaneously), locus of the guide assayed, editor Cas9, total RNA 275.0 ng
[16] = multiple guide delivery (four guides simultaneously), locus of the guide assayed, editor Cas9, total RNA 550.0 ng
[17] = single guide delivery, editor BC22n, total RNA 8.6 ng
[18] = single guide delivery, editor BC22n, total RNA 17.2 ng
[19] = single guide delivery, editor BC22n, total RNA 34.4 ng
[20] = single guide delivery, editor BC22n, total RNA 68.8 ng
[21] = single guide delivery, editor BC22n, total RNA 137.5 ng
[22] = single guide delivery, editor BC22n, total RNA 275.0 ng
[23] = single guide delivery, editor BC22n, total RNA 550.0 ng
[24] = single guide delivery, editor Cas9, total RNA 8.6 ng
[25] = single guide delivery, editor Cas9, total RNA 17.2 ng
[26] = single guide delivery, editor Cas9, total RNA 34.4 ng
[27] = single guide delivery, editor Cas9, total RNA 68.8 ng
[28] = single guide delivery, editor Cas9, total RNA 137.5 ng
[29] = single guide delivery, editor Cas9, total RNA 275.0 ng

B1: G016206: guide targeting TRBC1/2 (SEQ ID NO: 713) (nucleic acid)
guide: mC*mG*mC*rUrGrUrCrArArGrUrCrCrArGrUrUrCrUrArGrUrUrUrUrArGrAmGmCmUmAmGmAmAmAmUmAmGmCrArArGrUrUrArArArArUrArArGrGrCrUrArGrUrCrCrGrUrUrArUrCrAmAmCmUmUmGmAmAmAmAmAmGmUmGmGmCmAmCmCmGmAmGmUmCmGmGmUmGmCmU*mU*mU*mU
- percent cells negative for antigen, CD3 neg, Mean % ([1]; editor BC22n, total RNA 8.6 ng): 32.6%
- percent cells negative for antigen, CD3 neg, Mean % ([1]; editor BC22n, total RNA 17.2 ng): 53.4%
- percent cells negative for antigen, CD3 neg, Mean % ([1]; editor BC22n, total RNA 34.4 ng): 71.9%
- percent cells negative for antigen, CD3 neg, Mean % ([1]; editor BC22n, total RNA 68.8 ng): 82.9%
- percent cells negative for antigen, CD3 neg, Mean % ([1]; editor BC22n, total RNA 137.5 ng): 90.4%
- percent cells negative for antigen, CD3 neg, Mean % ([1]; editor BC22n, total RNA 275.0 ng): 96.0%
- percent cells negative for antigen, CD3 neg, Mean % ([1]; editor BC22n, total RNA 550.0 ng): 97.9%
- percent cells negative for antigen, CD3 neg, Mean % ([1]; editor Cas9, total RNA 8.6 ng): 7.9%
- percent cells negative for antigen, CD3 neg, Mean % ([1]; editor Cas9, total RNA 17.2 ng): 16.1%
- percent cells negative for antigen, CD3 neg, Mean % ([1]; editor Cas9, total RNA 34.4 ng): 27.0%
- percent cells negative for antigen, CD3 neg, Mean % ([1]; editor Cas9, total RNA 68.8 ng): 40.6%
- percent cells negative for antigen, CD3 neg, Mean % ([1]; editor Cas9, total RNA 137.5 ng): 59.4%
- percent cells negative for antigen, CD3 neg, Mean % ([1]; editor Cas9, total RNA 275.0 ng): 77.3%
- percent cells negative for antigen, CD3 neg, Mean % ([1]; editor Cas9, total RNA 550.0 ng): 86.6%
- C-to-A/G % mean [2, 3]: 2.6%
- C-to-T % mean [2, 3]: 11.6%
- Indel % mean [2, 3]: 2.8%
- C-to-A/G % mean [2, 4]: 3.6%
- C-to-T % mean [2, 4]: 23.4%
- Indel % mean [2, 4]: 2.6%
- C-to-A/G % mean [2, 5]: 3.7%
- C-to-T % mean [2, 5]: 38.5%
- Indel % mean [2, 5]: 2.9%
- C-to-A/G % mean [2, 6]: 2.3%
- C-to-T % mean [2, 6]: 55.6%
- Indel % mean [2, 6]: 2.4%
- C-to-A/G % mean [2, 7]: 1.8%
- C-to-T % mean [2, 7]: 72.4%
- Indel % mean [2, 7]: 1.7%
- C-to-A/G % mean [2, 8]: 1.9%
- C-to-T % mean [2, 8]: 85.1%
- Indel % mean [2, 8]: 1.7%
- C-to-A/G % mean [2, 9]: 2.2%
- C-to-T % mean [2, 9]: 89.8%
- Indel % mean [2, 9]: 0.9%
- C-to-A/G % mean [2, 10]: 0.7%
- C-to-T % mean [2, 10]: 0.2%
- Indel % mean [2, 10]: 2.3%
- C-to-A/G % mean [2, 11]: 0.7%
- C-to-T % mean [2, 11]: 0.3%
- Indel % mean [2, 11]: 4.2%
- C-to-A/G % mean [2, 12]: 0.5%
- C-to-T % mean [2, 12]: 0.1%
- Indel % mean [2, 12]: 6.6%
- C-to-A/G % mean [2, 13]: 0.5%
- C-to-T % mean [2, 13]: 0.4%
- Indel % mean [2, 13]: 12.3%
- C-to-A/G % mean [2, 14]: 0.5%
- C-to-T % mean [2, 14]: 0.2%
- Indel % mean [2, 14]: 17.8%
- C-to-A/G % mean [2, 15]: 0.5%
- C-to-T % mean [2, 15]: 0.1%
- Indel % mean [2, 15]: 33.0%
- C-to-A/G % mean [2, 16]: 0.3%
- C-to-T % mean [2, 16]: 0.3%
- Indel % mean [2, 16]: 43.3%
- C-to-A/G % mean [2, 17]: 6.1%
- C-to-T % mean [2, 17]: 23.7%
- Indel % mean [2, 17]: 6.1%
- C-to-A/G % mean [2, 18]: 6.8%
- C-to-T % mean [2, 18]: 42.4%
- Indel % mean [2, 18]: 6.8%
- C-to-A/G % mean [2, 19]: 5.7%
- C-to-T % mean [2, 19]: 60.1%
- Indel % mean [2, 19]: 5.9%
- C-to-A/G % mean [2, 20]: 4.3%
- C-to-T % mean [2, 20]: 73.2%
- Indel % mean [2, 20]: 4.7%
- C-to-A/G % mean [2, 21]: 3.6%
- C-to-T % mean [2, 21]: 81.7%
- Indel % mean [2, 21]: 3.7%
- C-to-A/G % mean [2, 22]: 2.3%
- C-to-T % mean [2, 22]: 91.0%
- Indel % mean [2, 22]: 2.8%
- C-to-A/G % mean [2, 23]: 2.0%
- C-to-T % mean [2, 23]: 93.6%
- Indel % mean [2, 23]: 1.7%
- C-to-A/G % mean [2, 24]: 0.5%
- C-to-T % mean [2, 24]: 0.3%
- Indel % mean [2, 24]: 8.1%
- C-to-A/G % mean [2, 25]: 0.7%
- C-to-T % mean [2, 25]: 0.3%
- Indel % mean [2, 25]: 14.9%
- C-to-A/G % mean [2, 26]: 0.8%
- C-to-T % mean [2, 26]: 0.2%
- Indel % mean [2, 26]: 24.1%
- C-to-A/G % mean [2, 27]: 0.4%
- C-to-T % mean [2, 27]: 0.2%
- Indel % mean [2, 27]: 35.9%
- C-to-A/G % mean [2, 28]: 0.5%
- C-to-T % mean [2, 28]: 0.2%
- Indel % mean [2, 28]: 48.6%
- C-to-A/G % mean [2, 29]: 0.4%
- C-to-T % mean [2, 29]: 0.1%
- Indel % mean [2, 29]: 63.8%
